# Source: US20210380703A1 (RIGEL PHARMACEUTICALS, published 2021)
# Residue numbers refer to the chain shown, from its start.
# B1: 367_F05 (antibody, V domains shown)
# VH: EVQLLESGGGLVQPGGSLRLSCAASGFTFSSYGMNWVRQAPGKGLEWVASINYNGGYTGYADSVKGRFTISRDNSKNTLYLQMNSLRAEDTAVYYCARSATWHDTALDYWGQGTLVTVSS
# VL: DIQMTQSPSSLSASVGDRVTITCRASQSILSYVNWYQQKPGKAPKLLIYAATSRASGVPSRFSGSGSGTDFTLTISSLQPEDFATYYCQQSYSSPLTFGGGTKVEIK
# notes: VH/VL only
# B2: 369_A05 (antibody, V domains shown)
# VH: B1 VH with G33S, S50G, A106H
# VL: B1 VL with S31T, L47V, S93E
# notes: VH/VL only
# B3: 368_E11 (antibody, V domains shown)
# VH: B1 VH with S30D, N35H, S50N, G59S, A106H
# VL: B1 VL with L30I, A55H, S93E, S94L
# notes: VH/VL only
# B4: 369_B09 (antibody, V domains shown)
# VH: B1 VH with S30D, N35H, G59S, A106H
# VL: B1 VL with S31T, V33L, S93E, S94N
# notes: VH/VL only
# B5: 368_G09 (antibody, V domains shown)
# VH: B1 VH with S30D, N35H, S50N, G59S, A106H
# VL: B1 VL with L30V, V33L, L47V, S93D, S94T
# notes: VH/VL only
# B6: 368_H07 (antibody, V domains shown)
# VH: B1 VH with N35H, G55S, G59S, A106H
# VL: B1 VL with V33L, S93E, S94N
# notes: VH/VL only
# B7: 370_A06 (antibody, V domains shown)
# VH: B1 VH with G33S, G55S, T58K, G59S, A106H
# VL: B1 VL with L30V, S31T, V33L, L47V, R54L, S93D, S94L
# notes: VH/VL only
# B8: 369_E10 (antibody, V domains shown)
# VH: B1 VH with G33S, A49S, S50N, T58K, G59S
# VL: B1 VL with L47V, S93D, S94L
# notes: VH/VL only
# B9: 368_F12 (antibody, V domains shown)
# VH: B1 VH with S30D, S31D, G33S, G55S, T58K, G59S, A106H
# VL: B1 VL with L30V, S31T, V33L, L47V, R54L, S93D, S94L
# notes: VH/VL only
# B10: 368_H01 (antibody, V domains shown)
# VH: B1 VH with G33S, S50G, G55S, T58K, G59S, A106H
# VL: B1 VL with V33L, A51T, R54L, S93D, S94N
# notes: VH/VL only
# B11: 368_D10 (antibody, V domains shown)
# VH: B1 VH with S30D, S50G, G55S, G59S
# VL: B1 VL with V33L, L47V, S93D
# notes: VH/VL only
# B12: 367_G07 (antibody, V domains shown)
# VH: B1 VH with S30D, G33S, S50N, A106H
# VL: B1 VL with S31T, S93D, S94N
# notes: VH/VL only
# B13: 368_G05 (antibody, V domains shown)
# VH: B1 VH with S30D, G33S, S50G, G59S, A106H
# VL: B1 VL with S31T, R54L, A55H, S93N, S94T
# notes: VH/VL only
# B14: 369_D11 (antibody, V domains shown)
# VH: B1 VH with N35H, G59S, A106H
# VL: B1 VL with S31T, V33L, L47V, R54L, Y92D, S93E, S94L
# notes: VH/VL only
# B15: 369_F07 (antibody, V domains shown)
# VH: B1 VH with S30D, G33S, S50G, T58K, G59S, A106H
# VL: B1 VL with L47V, S93E
# notes: VH/VL only
# B16: 368_H12 (antibody, V domains shown)
# VH: B1 VH with S30D, G33S, G55S, T58K, A106H
# VL: B1 VL with L30V, S31T, V33L, S93E
# notes: VH/VL only
# B17: 369_C10 (antibody, V domains shown)
# VH: B1 VH with G33S, S50N, G59S
# VL: B1 VL with L30V, S31T, V33L, R54L, A55H, Y92D, S94L
# notes: VH/VL only
# B18: 367_H07 (antibody, V domains shown)
# VH: B1 VH with G33S, S50N
# VL: B1 VL with L47V, A51T, S93E, S94N
# notes: VH/VL only
# B19: 369_B12 (antibody, V domains shown)
# VH: B1 VH with S30D, G33S, A49S, S50G, T58K, G59S, A106H
# VL: B1 VL with S31T, A51T, R54L, S93D
# notes: VH/VL only
# B20: 370_B05 (antibody, V domains shown)
# VH: B1 VH with G59S, A106H
# VL: B1 VL with S31T, L47V, S93E, S94N
# notes: VH/VL only
# B21: 369_G07 (antibody, V domains shown)
# VH: B1 VH with G33S, S50G, G59S, A106H
# VL: B1 VL with S31T, L47V, S93D, S94N
# notes: VH/VL only
# B22: 368_C01 (antibody, V domains shown)
# VH: B1 VH with S30D, S50G
# VL: B1 VL with L30I, S31T, V33L, S93D
# notes: VH/VL only
# B23: 369_B02 (antibody, V domains shown)
# VH: B1 VH with S30D, G33S, A49S, S50G, T58K, G59S, A106H
# VL: B1 VL with V33L, L47V, S93N, S94L
# notes: VH/VL only
# B24: 368_C06 (antibody, V domains shown)
# VH: B1 VH with S30D, G33S, S50G, T58K, G59S, A106H
# VL: not shown
# notes: VH/VL only
# B25: 369_A10 (antibody, V domains shown)
# VH: B1 VH with S30D, G33S, S50G, G55S, A106H
# VL: B1 VL with V33L, S93E, S94L
# notes: VH/VL only
# B26: 369_F12 (antibody, V domains shown)
# VH: B1 VH with G33S, G55S, T58K, G59S, A106H
# VL: B1 VL with L30I, V33L, A51V, R54L, S93E, S94N
# notes: VH/VL only
# Molecular target: human ACVR2A (human, UniProt P27037 20-135, limits assumed)
# Experiment: ELISA
# Procedure, shortened: (§1)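 mAb binding by ELISA; antigens: hu ACVR2A, mu ACVR2A; pos ctrl biotinylated goat anti-hu kappa LC; neg ctrl hu Fc.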
# Note: test concentration or dose not given here.
# human ACVR2A, sequence (P27037 20-135 limits assumed): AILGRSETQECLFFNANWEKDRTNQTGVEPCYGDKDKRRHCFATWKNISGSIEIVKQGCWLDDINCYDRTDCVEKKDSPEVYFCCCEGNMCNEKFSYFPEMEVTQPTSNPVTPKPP
row,optical density,Binder
1,2.27 OD,B1
2,3.29 OD,B2
3,2.57 OD,B3
4,1.62 OD,B4
5,2.44 OD,B5
6,2.71 OD,B6
7,2.59 OD,B7
8,3.36 OD,B8
9,1.69 OD,B9
10,3.03 OD,B10
11,2.25 OD,B11
12,3.02 OD,B12
13,2.17 OD,B13
14,2.99 OD,B14
15,3.43 OD,B15
16,2.64 OD,B16
17,2.48 OD,B17
18,2.72 OD,B18
19,2.67 OD,B19
20,2.84 OD,B20
21,3.32 OD,B21
22,2.61 OD,B22
23,3.4 OD,B23
24,0.738 OD,B24
25,3.38 OD,B25
26,2.73 OD,B26

# Molecular target: mouse ACVR2A (mouse, UniProt P27038 20-135, limits assumed)
# Experiment: ELISA
# Procedure, shortened: as §1
# mouse ACVR2A, sequence (P27038 20-135 limits assumed): as the sequence (P27037 20-135 limits assumed) above, with K20R, V73I counted along it
row,optical density,Binder
1,2.48 OD,B1
2,3.25 OD,B2
3,2.92 OD,B3
4,1.58 OD,B4
5,2.81 OD,B5
6,2.86 OD,B6
7,2.77 OD,B7
8,3.53 OD,B8
9,1.7 OD,B9
10,3.14 OD,B10
11,2.45 OD,B11
12,3.2 OD,B12
13,2.42 OD,B13
14,2.99 OD,B14
15,3.43 OD,B15
16,2.69 OD,B16
17,2.46 OD,B17
18,2.68 OD,B18
19,2.76 OD,B19
20,3.11 OD,B20
21,3.37 OD,B21
22,2.92 OD,B22
23,3.55 OD,B23
24,1.03 OD,B24
25,3.14 OD,B25
26,2.82 OD,B26

# Molecular target: T1, biotinylated goat anti-human kappa light chain
# T1 construct: Positive control of the ELISA
# Experiment: ELISA; positive control
# Procedure, shortened: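 Monoclonal antibodies were first applied to human or mouse ACVR2A, alongside biotinylated goat anti-human kappa light chain (positive control) and human Fc (negative control); binding was then determined by ELISA.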
row,optical density,Binder
1,3.44 OD,B1
2,3.48 OD,B2
3,3.73 OD,B3
4,2.22 OD,B4
5,3.62 OD,B5
6,3.55 OD,B6
7,3.47 OD,B7
8,3.59 OD,B8
9,3.52 OD,B9
10,3.69 OD,B10
11,3.26 OD,B11
12,3.29 OD,B12
13,3.35 OD,B13
14,3.45 OD,B14
15,3.47 OD,B15
16,3.57 OD,B16
17,3.37 OD,B17
18,3.46 OD,B18
19,3.56 OD,B19
20,3.49 OD,B20
21,2.98 OD,B21
22,3.71 OD,B22
23,3.52 OD,B23
24,3.52 OD,B24
25,3.41 OD,B25
26,3.6 OD,B26
